B1: Centrosomal P4.1-associated protein (Homo sapiens), Q9HC77 (parent)
chain: MFLMPTSSELNSGQNFLTQWMTNPSRAGVILNRGFPILEADKEKRAAVDISTSFPIKGTHFSDSFSFINEEDSLLEEQKLESNNPYKPQSDKSETHTAFPCIKKGPQVAACHSAPGHQEENKNDFIPDLASEFKEGAYKDPLFKKLEQLKEVQQKKQEQLKRQQLEQLQRLMEEQEKLLTMVSGQCTLPGLSLLPDDQSQKHRSPGNTTTGERATCCFPSYVYPDPTQEETYPSNILSHEQSNFCRTAHGDFVLTSKRASPNLFSEAQYQEAPVEKNNLKEENRNHPTGESILCWEKVTEQIQEANDKNLQKHDDSSEVANIEERPIKAAIGERKQTFEDYLEEQIQLEEQELKQKQLKEAEGPLPIKAKPKQPFLKRGEGLARFTNAKSKFQKGKESKLVTNQSTSEDQPLFKMDRQQLQRKTALKNKELCADNPILKKDSKARTKSGSVTLSQKPKMLKCSNRKSLSPSGLKIQTGKKCDGQFRDQIKFENKVTSNNKENVTECPKPCDTGCTGWNKTQGKDRLPLSTGPASRLAAKSPIRETMKESESSLDVSLQKKLETWEREKEKENLELDEFLFLEQAADEISFSSNSSFVLKILERDQQICKGHRMSSTPVKAVPQKTNPADPISHCNRSEDLDHTAREKESECEVAPKQLHSLSSADELREQPCKIRKAVQKSTSENQTEWNARDDEGVPNSDSSTDSEEQLDVTIKPSTEDRERGISSREDSPQVCDDKGPFKDTRTQEDKRRDVDLDLSDKDYSSDESIMESIKHKVSEPSRSSSLSLSKMDFDDERTWTDLEENLCNHDVVLGNESTYGTPQTCYPNNEIGILDKTIKRKIAPVKRGEDLSKSRRSRSPPTSELMMKFFPSLKPKPKSDSHLGNELKLNISQDQPPGDNARSQVLREKIIELETEIEKFKAENASLAKLRIERESALEKLRKEIADFEQQKAKELARIEEFKKEEMRKLQKERKVFEKYTTAARTFPDKKEREEIQTLKQQIADLREDLKRKETKWSSTHSRLRSQIQMLVRENTDLREEIKVMERFRLDAWKRAEAIESSLEVEKKDKLANTSVRFQNSQISSGTQVEKYKKNYLPMQGNPPRRSKSAPPRDLGNLDKGQAASPREPLEPLNFPDPEYKEEEEDQDIQGEISHPDGKVEKVYKNGCRVILFPNGTRKEVSADGKTITVTFFNGDVKQVMPDQRVIYYYAAAQTTHTTYPEGLEVLHFSSGQIEKHYPDGRKEITFPDQTVKNLFPDGQEESIFPDGTIVRVQRDGNKLIEFNNGQRELHTAQFKRREYPDGTVKTVYANGHQETKYRSGRIRVKDKEGNVLMDTEL
partner: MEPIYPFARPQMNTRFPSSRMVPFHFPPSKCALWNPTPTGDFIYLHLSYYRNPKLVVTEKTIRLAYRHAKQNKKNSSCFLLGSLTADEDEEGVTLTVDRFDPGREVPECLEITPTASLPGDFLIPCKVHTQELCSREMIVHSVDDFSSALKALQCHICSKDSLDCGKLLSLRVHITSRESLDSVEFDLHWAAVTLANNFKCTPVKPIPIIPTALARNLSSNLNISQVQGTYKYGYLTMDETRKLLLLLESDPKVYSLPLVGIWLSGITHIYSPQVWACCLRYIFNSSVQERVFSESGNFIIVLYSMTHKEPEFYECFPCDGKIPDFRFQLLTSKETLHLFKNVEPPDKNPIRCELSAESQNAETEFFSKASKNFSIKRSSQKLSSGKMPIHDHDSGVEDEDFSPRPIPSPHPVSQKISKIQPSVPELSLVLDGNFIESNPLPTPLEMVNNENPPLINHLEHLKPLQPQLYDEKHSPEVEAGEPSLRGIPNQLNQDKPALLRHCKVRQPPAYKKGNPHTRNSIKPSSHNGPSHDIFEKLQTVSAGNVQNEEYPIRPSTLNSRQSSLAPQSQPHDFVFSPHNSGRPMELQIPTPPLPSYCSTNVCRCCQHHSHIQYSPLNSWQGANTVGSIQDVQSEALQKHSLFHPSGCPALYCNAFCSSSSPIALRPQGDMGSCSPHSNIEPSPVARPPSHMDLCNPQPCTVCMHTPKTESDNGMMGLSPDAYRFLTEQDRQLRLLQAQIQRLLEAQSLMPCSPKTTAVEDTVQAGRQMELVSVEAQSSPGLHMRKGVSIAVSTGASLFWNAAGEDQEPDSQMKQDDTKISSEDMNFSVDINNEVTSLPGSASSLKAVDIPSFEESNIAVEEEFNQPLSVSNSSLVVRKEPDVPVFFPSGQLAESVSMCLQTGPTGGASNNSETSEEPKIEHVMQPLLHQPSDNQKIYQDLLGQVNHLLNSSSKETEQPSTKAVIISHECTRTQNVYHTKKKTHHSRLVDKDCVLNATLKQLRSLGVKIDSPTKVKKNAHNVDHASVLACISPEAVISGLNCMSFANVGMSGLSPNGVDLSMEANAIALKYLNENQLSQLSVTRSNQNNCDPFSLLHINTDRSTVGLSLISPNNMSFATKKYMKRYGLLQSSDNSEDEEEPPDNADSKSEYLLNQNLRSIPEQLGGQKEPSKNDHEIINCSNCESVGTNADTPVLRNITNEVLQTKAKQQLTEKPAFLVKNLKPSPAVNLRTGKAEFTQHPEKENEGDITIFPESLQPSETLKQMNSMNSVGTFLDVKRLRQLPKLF

Variants of: B1
Conditions: with stil_human STIL

Row | Variant | effect of a mutation on the interaction
1 | E1235V | decreasing interaction

Variants of: B1
Conditions: with stil_human STIL
Remark: another data set of the same source

Row | Variant | effect of a mutation on the interaction
2 | E1235V | disrupting interaction

— IntAct's records for PubMed 22020124
